A protein production outcome set (Wang et al. 2014)

Test: label from the status in PepcDB records

Sequence | protein production
MILGEIMEVLAFKNQSLIDHVNDMVKYWERIKYRYLKTIKRALEALNIKLDIEKVDEFMKILIKLHDIGKASKIYQRAIINDQEKLMGFRHELVSAYYTYHILLKKFGDKNLAFIGALTVMLHHEPIIMGQIRNLKKKELTAEVVLDKLKKFDGMIEDFEDLIKKLIGYSIGDIIKNDSNKDDIIRFVIEMSVRARHTPNSEKLRFIVGTLLLPLVMCDYKGAESREGKAPKFAEVLEVESYVI | not failed
MFYKEENFKKTEIGEIPEDWEIVELKDVCKKIKAGGTPKTSVEEYYKNGTIPFVKIEDITNSNKYLTNTKIKITEEGLNNSNAWIVPKNSVLFAMYGSIGETAINKIEVATNQAILGIIPKDNILESEFLYYILAKNKNYYSKLGMQTTQKNLNAQIVKSFKIPLPPLEEQKQIAKILTKIDEGIEIIEKSINKLERIKKGLMHKLLTKGIGHSRFKKSEIGEIPEDWEVFEIKDIFEVKTGTTPSTKKSEYWENGEINWITPLDLSRLNEKIYIGSSERKVTKIALEKCNLNLIPKGSIIISTRAPVGYVAVLTVESTFNQGCKGLFQKNNDSVNTEFYAYYLKFKKNLLENLSGGSTFKELSKSMLENFKIPLPPLEEQKQIAKILSSVDKSIELKKQKKEKLQRMKKKIMELLLTGKVRVKT | not failed
MTIPELPKDLIEEILCYVPATYLKRLRSTCKGWNRLFKDDRRFAKKHYDKAAKQFLPLMSTNEELCAMSVNLHGTIPSLEVKDKPWLFVSDSKHCDIEISRIFHSGGLLLCFSRDGEISIIVWNPLTSETRLIRTRNRRDKGRNFVLGYYQEDKKTYYKILSFYLDSKDFEIFEFNSDSWRFIDDICPGLSLLYSDQCVSLKGNTYMFAIDDLSVSLLKYDFSTETSVPVPLPYKSRSFEAISLSVVREEKLSVLLQRDKSSKTEIWVTNVIDETTTKVMVVSWSKVLSLDLSPDLKIRYGESFLLDEEKKVIMIFNNRMEEENKSEDKLYIIGDDDNKATQVYTIHGYGPAVFNYFPSLVQIEQSSRQEEKS | failed
MKVNTWFGVLELDSNGKTLSSEVFPKDIRELALRSLSLRESRQNLPPEGFDLKTAALECGFTESLSEYYSLLHKVTLETVKLQVSQALTPDQRIIQAVEALDDINETTNSLSERLFEWYGGYFPESGLSGEELAVFISRYGSRENLPPEDPHYLKAKNSMGAKLEAADEVLLKGLAESVCSLYERRKQIEAYIESSMEILAPNLALLAGPMLGARLISIAGSLEKLAAFPSSTIQVIGASKALFKHLRSRAPSPKHGIIYSHPLINTSPWWVRGKVARALAAKLSLAARIDFYSAKRNPSLENELEEKIRKIRAENPRPPQKRQEIRAKPKKKRRKLEHHHHHH | not failed
MPALSGLHLAPSVASFLCLAWTVALYFAVKPLYQRLPRIWLSPAIVVPALTIPLLLITGIPYAEYVADTRWMVWLLGPATIAFAVPIYEHREIVRRHWIALALGVIAGMLVAMLSARLLAEAFHFSSEVSSSLMARSVSTPFAVAVVAHTGGSAELVSLFTVMTGLAGMIVGDTVLGLLRLRSPVAQGASLGTAAHGFGTARARQRHAEEGVVASLTMVLAGVLMVIAGPTLTGWVTALVG | failed
MEVRWCATSDPEQHKCGNMSEAFREAGIQPSLLCVRGTSADHCVQLIAAQEADAITLDGGAIYEAGKEHGLKPVVGEVYDQEVGTSYYAVAVVRRSSHVTIDTLKGVKSCHTGINRTVGWNVPVGYLVESGRLSVMGCDVLKAVSDYFGGSCVPGAGETSYSESLCRLCRGDSSGEGVCDKSPLERYYDYSGAFRCLAEGAGDVAFVKHSTVLENTDGKTLPSWGQALLSQDFELLCRDGSRADVTEWRQCHLARVPAHAVVVRADTDGGLIFRLLNEGQRLFSHEGSSFQMFSSEAYGQKDLLFKDSTSELVPIATQTYEAWLGHEYLHAMKGLLCDPNRLPPYLRWCVLSTPEIQKCGDMAVAFRRQRLKPEIQCVSAKSPQHCMERIQAEQVDAVTLSGEDIYTAGKKYGLVPAAGEHYAPEDSSNSYYVVAVVRRDSSHAFTLDELRGKRSCHAGFGSPAGWDVPVGALIQRGFIRPKDCDVLTAVSEFFNASCVPVNNPKNYPSSLCALCVGDEQGRNKCVGNSQERYYGYRGAFRCLVENAGDVAFVRHTTVFDNTNGHNSEPWAAELRSEDYELLCPNGARAEVSQFAACNLAQIPPHAVMVRPDTNIFTVYGLLDKAQDLFGDDHNKNGFKMFDSSNYHGQDLLFKDATVRAVPVGEKTTYRGWLGLDYVAALEGMSSQQC | failed
MCPEFQRKAAGAPRMGAMLARCVLTAALALQAAAAARAVEIEIGVASRGVVDGLEFVQFSADERTMATTHWGNVVHLWDLKTLRVRSSVSVANRDFDFDLSPDGRALAVWNEEGKGEIELYDTDNGQPARALPAPRLPQGESRRGRSLVYRDDGTLEFVSHGWIGGHARKAYLLAVPAGQPRAAETPLPALVNSVAFRKSAVMDQGRLLLAGVDGADDELAIMDIASGRMLAREPGFRIASYAADARRAVFVEADGKQRILAFDFSSRSLSTLPRWTGSGKFQPYRFVAGTRFLVLAPDEPDASTRRAAPGIYDLQTRRLHRLPPDADPGSIDVWGATASYVLCNPDHTACQAEVADLAISRKLGTFAVQPSADFRTWISPSGSMVVVGGADDGTMMVWSVKEQRVIGPN | failed
MEKLTTLTGVAVPLRRSNVDTDQIIPAVFLKRVKKSGFDDALFYAWRRDPEFVLNKPEYKQGKILVAGPDFGIGSSREHAVWALHDYGFRVVISSRFADIFYGNTAKNGVLAAIMPQESIELLWKLLDEEPGREMTVSLEDRTVTCGDVTLPFEVNDYTRWRLMNGYDDIDLTLQHEDDIIAYEKMRAEKFPFKPKTLPVKREPEQPIESAREGEYPDWQGPLADRGII | failed
QSGATAKVSVLYIGPMEAPADAAQRLGLPAGTQVLARRRLYFRNGTPVETASSYLPWDVVKDIPELFAENPGGGGIYARLEDHGHEFAEFVETLQARPASKAEASELALSPGAPVVHLIREARTTAGVVVEVCDTLMAADQFVFEYRIPAAD | failed
MSEKPLISVLMPNYNSEKYLNEAIESILNQTYENFEFIILDDCSTDNSWKIIQEYAKKDKRINIFRNEKNLGRPKTYNRLLNMISNESFFFFFMGSDDVVKENMINIKLNYFNNFEEIDGIGNSIEYVDENLNFIKKREYPLTDRDIRKNFLIFNPISQGGMCLKSNLKNETFNEKYKVCLDYEIWTRLIDKGYTFENLKESLYLYRQQREQAKQKNLKMTLVNTVKIKSKYLFRPQYFSINAFLRFNLEILLLMLPKKLILWVFYKSL | failed
MKHTLVITILIIMFSNGATAEEDKRSINESTTNMIAALQQKQWIHGSQDCKNNQDPAIEVFQYDESSYVLRQNKCLSYEAPFIYVLIGKEKILVVDTGATESAEEFPLYQTVQSLNQKHSDNGKTKEREIVVIHSHSHSDHYSADSQFVGQANVTVVAANNTGVNEFFDFEKWPEQQTNFELGGRSITIIPTPGHQEEAISVYDPQTKWLLTGDTFYPGYIYVKTWQDYKNSIARLVEFTNNHSVSAILGSHIEMTNKAGEYYEIGTIYQPNESSLLLTPSDLTALNEKLQQVDEPEKIAMDSLIVEPLGALPKLISSIAKWFIG | failed
MQHRQLWYRGGLGLALALVVVGYRGSRTVIRAVPRAQLSVDQKMPSTSSVFSASKLTLQDEANNSAPQVSPEAQESSGPDKQSDLTSGSSTSSSGISSGNSSGSTILENAKNNQTSETATTKAAEMVNGTVKMTLDTNGTLHLSGGSFGASLGSATGSWIVKTLTANGYQPTQVSKIVIDGKITATTMTNYSYLFANLPNVTAIDGLANLNLTGVTDISWLFLNCSQLGALDLNSWDVSSVIRMEGTFQNCAKLVTLNVANWNTDSLQYLIDTFNGDSSLTSLPVGKWNTSKVATMMRTFTDCSSLTSLDIANWDTRVVTNMSAIFRGMSKVKSLPIDKWQTGRVVNMQLVFSGDTSLESINVANWDTSRATALDGTFAKLPNIKSLPLDNWNTSNVQTIRSTFYGDTNLTQLPIDNWNVGKVFDFNSTFSGCASLTTAPVANWNTQSATNLGYTFEGMTSLTSLPVDNWQTGTVTNMAGTFSGVSQLKSLPISKWNTKNVQNMAGTFSKMSSVTALPVDNWQTGNVTTMRGIFTKVSQVKNLPVGKWNTAKVVDMGQVFYGNPQLTSLPIENWNTSSATDFSQLFAEDSGLQTLSLGAWNTTKVTNFESVFQNTSLDKLDLTGWNTNSAQTYTNAFSSKLPPKRLLLGPSFNFFKSESWHLPNPSSEAPYIGKWRSLNNKKVYTSADLMTKYDGKTIVGEFEWATGNTITVKYVDAAGKYLAPDTKISGATGDAYHIKPIEIQGYVPDQPDGVQGNFTDKDETITLMYNPGGLMFVSAPQTINFGQNPITGKSENYGASYDTGLVIQDGRSIGSTWSLNATLSASGFTSKQSGRPLAAVLSYKDQQTGGGSILTPGVARLIVNNHQTVSNQGVNILGQKTALGALSLQVPTDRALTDTYQATVTWTLNQGVPNR | failed
MTIMTARFASILLGGCLAASLFSGPVFAVGNDNSTMPTCKKGEIYDQKTKKCVKQQSANVSDENRTDYAYSLAKAGRYEEALAMLDTVKDQNSAEVLNYRGYATRKLGRTDEGISYYLQSVKMDPQYAKVREYLGEAYVIKGRLDLAKEQLTTIKAICGTACEEYQDLNAAILNPSKI | failed
MPGIKVHPNESFDEAYRKFKKQVDRNLVVTEVRARRFFEPMTEIRKKQKISARKKMLKRLYMLRRYESRLLEHHHHHH | failed
MTIPNQIEVRGGRVHNLKNIDVDIPLNKFVAISGLSGSGKSSLAMGILYEEGSRRYLDALSTYMRRRIKQGSQVDVTSVKHIPSALALRQRPSVPNERATVGTMSETFNILRLIFSRLGSPVCPNGHRLKPSLKIAESMSLSGEKMGQLTCPVCGENFYAPSAEQFAFNSEGACIECGGTGKVRQLDEDKLIADENLSIKEGAVASWSLPGRNFMPNVAEYAGVRIDIPYKDLTAKEKDFVLNGPEKKYKMDFLSGTGRVFHDFNVLYENAHQAVYRSAQTSKSERAQKRIAEFFTYSICPVCHGSRLKPELLKQWVGNSNINQVSQKQLGELPTWADQIQAELPANMHKMAHALFAEFLDNLQPLLDLGLDYLTMARNGNTLSTGELQRIQLARTLRTETTGVLYVLDEPSIGLHPANVAGLIKVLRKLVNQGNSLVVVDHNVDIIAAADEVIEIGPGSGEKGGQILDHGPISTIKNDQQSLIRPYLDGSAQLLARKIANQINNDGISFEVKNYFNLKDIKANIPLNQLTAVTGFSGAGKTSLILDSLVPAIKAESKNEKLPKQIINFSAPVSNVVGVDASPIGKSTRSTVATYTSIMNNLRRLFASQPLAKEKHFTPTYFSYNNKQGACPTCGGTGIVTLDIQFLPDMQQVCPTCHGDRYNQKVQQVKWQGMSIVDILNLDIEGALPLFKRVPKIERELKLLKEVGLDYLHLGESTPTLSGGEAQRLKLVTHLSHKQSDTLFVFDEPTIGLHPLDVKTLVKVMQKLLDQGATLITITHDLNLIANCDYIIDLGPQGGNNGGQIVASGRVMDLIKDPHSLTTQYLAVYCENLICLKIIIDLLA | failed
MTTFDAKKLKKEYLDWYNQILEFSNLSNNSVKIDTPFKDNSLDNLKIYALYDQSRDMITLTDDGYTIFGLENNGVSINKFKKRKKIFEEHLSAYGIKYNDKTHEIFVQTNFKNFNKSKHNLLQCLIFVNDMYLLSNPKSQNIFTEDVANKLDEHNIYYGRDIPIIGSSGVVHNFDFFISAKKNQKEKFINVFSNPNNSMIIKSKITDAMQAKKIKRHRQNEFIFILNDSKKEINEHNKNLLHENYISTIDYSELDEKIGLLI | failed
